Source: patent US20220143148A1, “COMPOSITIONS AND METHODS FOR MODULATING CGRP SIGNALING TO REGULATE INTESTINAL INNATE LYMPHOID CELLS” (The Broad Institute, Inc., priority 2019, published 2022)

Tested on: small intestinal immune cells
Assay: Droplet-based scRNA-seq of small intestinal immune cells (LP and PP), OVA vs PBS, clustering and differential expression
Type: in vivo, mouse
Details: PP, cluster ID 8
Source text: To comprehensively characterize small intestinal immune cells, Applicants generated scRNA-Seq profiles for 58,067 immune cells collected from lamina propria (LP) and Peyer's patch (PP) regions at steady state and after induction of a type 2 inflammatory reaction to ovalbumin (OVA) (Brandt et al., 2003) (FIGS. 1A and 8A). To ensure sufficient representation of rare cells, Applicants combined a normalization strategy—removing by flow sorting either a portion of IgD+ naïve B cells, which are the most abundant cell type in PPs, or all CD19+ and CD3+ T cells (FIG. 8B, Methods)—with profiling of a sufficiently large number of cells number (P>0.99 to recover at least 15 cells from each cluster, Methods) by massively parallel scRNA-seq (Haber et al., 2017) (Methods). Applicants obtained 36,797 and 21,270 high quality cells passing initial filtering (Methods) from PP and LP regions, respectively.
Overall, Applicants annotated 27 cell subsets across the two compartments, spanning T cells, B cells, ILCs, dendritic cells (DCs), myeloid cells and stromal cells, in frequencies ranging from 0.07% to 14%. Briefly, Applicants first partitioned the cells from the PP regions by unsupervised clustering (Methods) into 46 clusters, retained the 97% of cells that were robustly assigned cell identities in each cluster (Methods), assigned the cells from the LP regions to the 46 clusters using a classifier (Methods), and visualized the data with scvis (Ding et al., 2018), a deep generative model-based method (FIGS. 1B and 8C, Methods). Next, Applicants identified genes that were differentially expressed between the cells in each cluster and the remaining cells (Table 1, Methods), as well as between pairs of clusters (Table 2), to elucidate identities of similar cell types/states. Applicants excluded from downstream analysis clusters mostly consisting of contaminants from epithelium, likely doublets, or cells with a small number of Unique Molecular Identifiers (UMIs) (FIGS. 1C and 8D), or lacking distinct markers (Methods). Altogether, Applicants retained 27 clusters spanning 85% of the cells and each associated with distinct marker genes (FIG. 8E, Methods).
To induce allergic reaction to OVA, 6 to 7 weeks old mice were sensitized twice, two weeks apart, with 50 μg of OVA plus 1 mg of aluminum potassium sulfate adjuvant via intraperitoneal injection. Two weeks later, mice were orally administered with 50 mg of OVA on every other day for a total of five times. 1 μg of α-CGRP peptide was administered simultaneously when indicated. Mice were deprived of food for 3-4 hours in cages with wood chip bedding for limiting antigen degradation in the stomach before each intragastric challenge.
Isolation of cells from Peyer's patches (PPs). Peyer's patches (PPs) were carefully dissected from the small intestine under a stereo microscope using a fine scissor, pierced once with a fine forcep. Tissues were digested in freshly made digestion buffer (RPMI-1640 containing 100 μg/ml Liberase™ and 50 μg/ml DNase I at 37° C. on a roto-mixer. After 15 min, tissues were very gently mixed using a 1 ml pipette. The supernatant was collected and added to ice-cold MACS buffer (pH 7.4; PBS plus 2% FCS and 2 mM EDTA). Pre-warmed (37° C.) fresh digestion buffer was added to the remaining tissues. After rotation at 37° C. for 15 min, the mixture was vigorously mixed using a 1 ml pipette for 1 min. Supernatants from the two steps were combined and passed through 70 μm filters and stained for FACS (below).
Isolation of cells from the lamina propria (LP). The small intestines were opened longitudinally and washed in ice-cold PBS. For scRNA-seq, roughly 0.5 cm of fragments from each of the distal, middle and proximal regions without visible PPs were collected. Epithelial cells were dissociated by tissue rotation in pre-warmed (37° C.) PBS containing 10 mM EDTA at 37° C. for 15 min, followed by additional incubation on ice for 15 min. Tissues were then shaken vigorously. […]

B1: OVA (protein, UniProt P01012 2-386, looked up)
Ovalbumin: GSIGAASMEFCFDVFKELKVHHANENIFYCPIAIMSALAMVYLGAKDSTRTQINKVVRFDKLPGFGDSIEAQCGTSVNVHSSLRDILNQITKPNDVYSFSLASRLYAEERYPILPEYLQCVKELYRGGLEPINFQTAADQARELINSWVESQTNGIIRNVLQPSSVDSQTAMVLVNAIVFKGLWEKAFKDEDTQAMPFRVTEQESKPVQMMYQIGLFRVASMASEKMKILELPFASGTMSMLVLLPDEVSGLEQLESIINFEKLTEWTSSNVMEERKIKVYLPRMKMEEKYNLTSVLMAMGITDVFSSSANLSGISSAESLKISQAVHAAHAEINEAGREVVGSAEAGVDAASVSEEFRADHPFLFCIKHIATNAVLFFGRCVSP
Rab35 percentage of expressing cells in OVA-treated group: 0.207
Rac2 percentage of expressing cells in OVA-treated group: 0.97
Rel percentage of expressing cells in OVA-treated group: 0.139
Rgs1 percentage of expressing cells in OVA-treated group: 0.699
Rnf125 percentage of expressing cells in OVA-treated group: 0.167
Rnf157 percentage of expressing cells in OVA-treated group: 0.188
Rora percentage of expressing cells in OVA-treated group: 0.161
Rrad percentage of expressing cells in OVA-treated group: 0.191
Rsrp1 percentage of expressing cells in OVA-treated group: 0.559
Samd9l percentage of expressing cells in OVA-treated group: 0.176
Samsn1 percentage of expressing cells in OVA-treated group: 0.324
Sh2d1a percentage of expressing cells in OVA-treated group: 0.488
Sik1 percentage of expressing cells in OVA-treated group: 0.161
Skil percentage of expressing cells in OVA-treated group: 0.207
Sla percentage of expressing cells in OVA-treated group: 0.335
Slfn2 percentage of expressing cells in OVA-treated group: 0.408
Sp100 percentage of expressing cells in OVA-treated group: 0.537
Taf10 percentage of expressing cells in OVA-treated group: 0.347
Tfam percentage of expressing cells in OVA-treated group: 0.19
Tgif1 percentage of expressing cells in OVA-treated group: 0.305
Tm6sf1 percentage of expressing cells in OVA-treated group: 0.454
Traf1 percentage of expressing cells in OVA-treated group: 0.464
Tsc22d3 percentage of expressing cells in OVA-treated group: 0.664
Tuba4a percentage of expressing cells in OVA-treated group: 0.191
Txndc5 percentage of expressing cells in OVA-treated group: 0.239
Txnip percentage of expressing cells in OVA-treated group: 0.398
Ube2s percentage of expressing cells in OVA-treated group: 0.478
VgIl4 percentage of expressing cells in OVA-treated group: 0.47
Vps37b percentage of expressing cells in OVA-treated group: 0.79
Zc3h12a percentage of expressing cells in OVA-treated group: 0.182
Zfp36l2 percentage of expressing cells in OVA-treated group: 0.84
Zfp512 percentage of expressing cells in OVA-treated group: 0.446
AW112010 LN (average fold change) (OVA vs PBS): 0.208
AY036118 LN (average fold change) (OVA vs PBS): −0.339
Actr3 LN (average fold change) (OVA vs PBS): 0.315
Alyref LN (average fold change) (OVA vs PBS): −0.597
Amd1 LN (average fold change) (OVA vs PBS): −0.426
Arf4 LN (average fold change) (OVA vs PBS): −0.186
Arfrp1 LN (average fold change) (OVA vs PBS): 0.609
Arl6ip1 LN (average fold change) (OVA vs PBS): 0.367
Arl6ip5 LN (average fold change) (OVA vs PBS): 0.344
Arpc5l LN (average fold change) (OVA vs PBS): 0.383
Arrb2 LN (average fold change) (OVA vs PBS): 0.295
Ash1l LN (average fold change) (OVA vs PBS): 0.491
B2m LN (average fold change) (OVA vs PBS): 0.159
Bcl2 LN (average fold change) (OVA vs PBS): 0.286
Bcl2a1b LN (average fold change) (OVA vs PBS): −0.507
Bcl2l11 LN (average fold change) (OVA vs PBS): −0.208
Bhlhe40 LN (average fold change) (OVA vs PBS): −0.159
Cap1 LN (average fold change) (OVA vs PBS): 0.235
Ccr2 LN (average fold change) (OVA vs PBS): 0.330
Cd47 LN (average fold change) (OVA vs PBS): 0.262
Cd69 LN (average fold change) (OVA vs PBS): −0.386
Cd74 LN (average fold change) (OVA vs PBS): −0.187
Cdk2ap1 LN (average fold change) (OVA vs PBS): −0.673
Cdkn1a LN (average fold change) (OVA vs PBS): −0.980
Cdv3 LN (average fold change) (OVA vs PBS): −0.281
Cks2 LN (average fold change) (OVA vs PBS): −0.601
Clec2d LN (average fold change) (OVA vs PBS): 0.391
Coq10b LN (average fold change) (OVA vs PBS): −0.426
Crem LN (average fold change) (OVA vs PBS): −0.681
Csrp1 LN (average fold change) (OVA vs PBS): −0.437
Ctla2a LN (average fold change) (OVA vs PBS): 0.372
Cxcr4 LN (average fold change) (OVA vs PBS): 0.544
Ddx21 LN (average fold change) (OVA vs PBS): −0.379
Defa24 LN (average fold change) (OVA vs PBS): −0.967
Dgat1 LN (average fold change) (OVA vs PBS): −0.352
Dusp1 LN (average fold change) (OVA vs PBS): −0.244
Eef2 LN (average fold change) (OVA vs PBS): 0.257
Egr1 LN (average fold change) (OVA vs PBS): −0.640
Eif4a2 LN (average fold change) (OVA vs PBS): 0.300
Emb LN (average fold change) (OVA vs PBS): −0.223
Fam105a LN (average fold change) (OVA vs PBS): 0.376
Fasl LN (average fold change) (OVA vs PBS): 0.296
Fcer1g LN (average fold change) (OVA vs PBS): 0.170
